Source: paper PMC11077774, “Molecular mechanism for recognition of the cargo adapter Rab6^GTP by the dynein adapter BicD2” (Life Science Alliance, 2024)

Key:
Assay in all cases: pull-down; GST-tagged Rab6^GTP (WT = Q72L, or mutant) held on glutathione Sepharose columns, 1 mM GTP and 2 mM MgCl2 added for 30 min; purified BicD2-CTD added and incubated 30 min; washed, eluted with glutathione; SDS-PAGE (16%), Coomassie, band intensities quantified with ImageJ, ratio of bound BicD2-CTD/Rab6^GTP normalised to WT = 1; three experiments
Conditions in all cases: both partners purified
[1] = biological target: T1, full-length GTP-bound Rab6a/Q72L with N-terminal GST tag (human, UniProt P20340 1-208, Q72L)
T1 construct: pGEX6P1 vector, PreScission site after GST; Construct described in Gibson et al, 2023; also called Rab6^GTP WT; Rab6^GTP; source: E. coli BL20(DE3)-RIL, purified by glutathione Sepharose, washed but not eluted; not shown: GST, N-terminal, kept

[2] = biological target: T2, GST-tagged Rab6^GTP (Rab6a/Q72L) Q65A mutant (human, UniProt P20340 1-208, Q72L | Q65A)
T2 construct: Rab6a, human, full length, Q72L background with Q65A; Loaded with 1 mM GTP and 2 mM MgCl2 on the column; source: E. coli BL20(DE3)-RIL, purified by glutathione Sepharose, washed but not eluted; not shown: GST, N-terminal, kept

[3] = biological target: T3, GST-tagged Rab6^GTP (Rab6a/Q72L) K53A mutant (human, UniProt P20340 1-208, Q72L | K53A)
T3 construct: Rab6a, human, full length, Q72L background with K53A; Loaded with 1 mM GTP and 2 mM MgCl2 on the column; source: E. coli BL20(DE3)-RIL, purified by glutathione Sepharose, washed but not eluted; not shown: GST, N-terminal, kept

[4] = biological target: T4, GST-tagged Rab6^GTP (Rab6a/Q72L) S52A mutant (human, UniProt P20340 1-208, Q72L | S52A)
T4 construct: Rab6a, human, full length, Q72L background with S52A; Loaded with 1 mM GTP and 2 mM MgCl2 on the column; also called phosphonegative mutation S52A; source: E. coli BL20(DE3)-RIL, purified by glutathione Sepharose, washed but not eluted; not shown: GST, N-terminal, kept

Measured: binding result

T2 sequence (P20340 whole entry Q65A/Q72L): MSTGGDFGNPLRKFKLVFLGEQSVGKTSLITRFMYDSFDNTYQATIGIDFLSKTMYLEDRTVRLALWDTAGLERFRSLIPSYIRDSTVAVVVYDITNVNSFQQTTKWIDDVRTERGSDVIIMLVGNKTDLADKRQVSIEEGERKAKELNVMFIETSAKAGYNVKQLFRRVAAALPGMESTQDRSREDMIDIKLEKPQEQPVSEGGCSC
T1 sequence (P20340 whole entry Q72L): as the sequence (P20340 whole entry Q65A/Q72L) above, with A65Q counted along it
T3 sequence (P20340 whole entry K53A/Q72L): as the sequence (P20340 whole entry Q65A/Q72L) above, with K53A, A65Q counted along it
T4 sequence (P20340 whole entry S52A/Q72L): as the sequence (P20340 whole entry Q65A/Q72L) above, with S52A, A65Q counted along it

B1: BicD2-CTD (C-terminal cargo-binding domain of human Bicaudal D2, residues 715-804) (domain or fragment, UniProt Q8TD16 715-804, looked up)
chain: YENEKAMVTETMMKLRNELKALKEDAATFSSLRAMFATRCDEYITQLDEMQRQLAAAEDEKKTLNSLLRMAIQQKLALTQRLELLELDHE
notes: Construct described in Gibson et al, 2022; also called BicD2-CTD WT
binds: all assays above
